Patent EP1801220A2 (Monsanto Technology, LLC, dated 2007)

B1: Cry3Bb.60 (60 kDa trypsin-truncated Cry3Bb, first 159 residues removed) (other)
chain: SKRSQDRIRELFSQAESHFRNSMPSFAVSKFEVLFLPTYAQAANTHLLLLKDAQVFGEEWGYSSEDVAEFYHRQLKLTQQYTDHCVNWYNVGLNGLRGSTYDAWVKFNRFRREMTLTVLDLIVLFPFYDIRLYSKGVKTELTRDIFTDPIFSLNTLQEYGPTFLSIENSIRKPHLFDYLQGIEFHTRLQPGYFGKDSFNYWSGNYVETRPSIGSSKTITSPFYGDKSTEPVQKLSFDGQKVYRTIANTDVAAWPNGKVYLGVTKVDFSQYDDQKNETSTQTYDSKRNNGHVSAQDSIDQLPPETTDEPLEKAYSHQLNYAECFLMQDRRGTIPFFTWTHRSVDFFNTIDAEKITQLPVVKAYALSSGASIIEGPGFTGGNLLFLKESSNSIAKFKVTLNSAALLQRYRVRIRYASTTNLRLFVQNSNNDFLVIYINKTMNKDDDLTYQTFDLATTNSNMGFSGDKNELIIGAESFVSNEKIYIDKIEFIPVQL
notes: Made by trypsin digestion of solubilized Cry3Bb, which cleaves after R159; The range counts on wild-type Cry3Bb; also called CryB2.60; Δ1-159

What was measured:
[1] = molecular target: Cry3Bb.11032 (D165G) (Bacillus thuringiensis) (UniProt Q06117); assay: cell-based or functional assay
[2] = molecular target: the molecule itself; assay: SDS-PAGE of unheated samples, Coomassie stain, self-association

Molecule | initial channel conductances when the protein is artificially incorporated into the membrane [1] [fold] | binding result [2]
Cry3Bb.11032 (D165G) (from UniProt Q06117 1-652) | 16 | –
B1 | – | binds
